Target: RipA fused to the Nanoluciferase large subunit (CEPlac-lgbit-ripA)
Test: split-luciferase assay
Conditions: in S. pneumoniae cells, signal relative to control strains R5380 and R5570, read off a plot

Substance: DnaN fused to the Nanoluciferase small subunit (CEPIIlac-smBit-dnaN) (from UniProt O06672) Y249N
- response (relative fold induction) (strain R5568 vs R5381, parent: est. 13): 4.8

Substance: DnaN fused to the Nanoluciferase small subunit (CEPIIlac-smBit-dnaN) (from UniProt O06672) H183P
- response (relative fold induction) (strain R5566 vs R5381, parent: est. 22): 4.8

Substance: DnaN fused to the Nanoluciferase small subunit (CEPIIlac-smBit-dnaN) (from UniProt O06672) L185R
- response (relative fold induction) (strain R5567 vs R5381, parent: est. 27): 5.5

From PMC12795458
